In this assay the test system is clots formed from pooled rabbit plasma with rabbit blood cells. Briefly: In vitro sonothrombolysis (STBL) of clots with MBs, CPDL, tPA and/or 450 nm StNPs, pulsed 1 MHz ultrasound. To be noted: pulsed 1 MHz ultrasound 15 min, in bovine calf serum, 0.5 mL/min; control ultrasound alone; 3 μm MBs, 0.1 mg/ml tPA, 0.06% w/V CPDL nanoemulsion. The method, then:
FIG. 1 depicts a graph showing the potentiation of sonothrombolysis (STBL) efficacy by microbubbles (MBs) and/or a nanoemulsion of cyclopentadecanolide with or without tissue plasminogen activator (tPA). […] STBL was performed with fibrin-rich clots (see Example 2) using pulsed, 1 MHz ultrasound for 15 min. The MBs, tPA, StNPs etc. were suspended in bovine calf serum and introduced at a flow rate of 0.5 mL/min. STBL efficacy is reported as % clot lysis. Abbreviations: US=ultrasound; MBs=microbubbles; CPDL=cyclopentadecanolide; StNPs=starch nanoparticles; tPA=tissue plasminogen activator.
The clots used in these experiments were formed by mixing pooled rabbit plasma with rabbit blood cells (final volume equal to 2 mL; the volume of whole rabbit blood from which the cells were obtained), incubating this mixture for 24 h at 37° C. and then curing the formed clots for 24 h at 5° C. […] The StNPs were diluted to have an Optical Density reading at 530 nm (OD530) of 1.0. […] STBL efficacy was measured as the percent of the initial clot mass that was lost from the clot during the 15 min treatment time.

B1: tissue plasminogen activator (protein, UniProt P00750 36-562, looked up)
Tissue-type plasminogen …: SYQVICRDEKTQMIYQQHQSWLRPVLRSNRVEYCWCNSGRAQCHSVPVKSCSEPRCFNGGTCQQALYFSDFVCQCPEGFAGKCCEIDTRATCYEDQGISYRGTWSTAESGAECTNWNSSALAQKPYSGRRPDAIRLGLGNHNYCRNPDRDSKPWCYVFKAGKYSSEFCSTPACSEGNSDCYFGNGSAYRGTHSLTESGASCLPWNSMILIGKVYTAQNPSAQALGLGKHNYCRNPDGDAKPWCHVLKNRRLTWEYCDVPSCSTCGLRQYSQPQFRIKGGLFADIASHPWQAAIFAKHRRSPGERFLCGGILISSCWILSAAHCFQERFPPHHLTVILGRTYRVVPGEEEQKFEVEKYIVHKEFDDDTYDNDIALLQLKSDSSRCAQESSVVRTVCLPPADLQLPDWTECELSGYGKHEALSPFYSERLKEAHVRLYPSSRCTSQHLLNRTVTDNMLCAGDTRSGGPQANLHDACQGDSGGPLVCLNDGRMTLVGIISWGLGCGQKDVPGVYTKVTNYLDWIRDNMRP
notes: thrombolytic agent, used at 0.1 mg/ml
On to B1, for which the “STBL efficacy (FIG. 1), in words” value is listed as “improved STBL efficacy”.

The values are drawn from patent US20150374394A1, “SONOLYSIS WITH BIODEGRADABLE NANOPARTICLES” (THE BOARD OF TRUSTEES OF THE UNIVERSITY OF ARKANSAS, priority 2012, published 2015).
